The target in test [1] is T1, HCoV-NL63 trimeric S protein (amino acids 22-1293) with T4 foldon, histidine tag and strep-tag (HCoV-NL63, UniProt Q6Q1S2 23-1293).
T1 sequence: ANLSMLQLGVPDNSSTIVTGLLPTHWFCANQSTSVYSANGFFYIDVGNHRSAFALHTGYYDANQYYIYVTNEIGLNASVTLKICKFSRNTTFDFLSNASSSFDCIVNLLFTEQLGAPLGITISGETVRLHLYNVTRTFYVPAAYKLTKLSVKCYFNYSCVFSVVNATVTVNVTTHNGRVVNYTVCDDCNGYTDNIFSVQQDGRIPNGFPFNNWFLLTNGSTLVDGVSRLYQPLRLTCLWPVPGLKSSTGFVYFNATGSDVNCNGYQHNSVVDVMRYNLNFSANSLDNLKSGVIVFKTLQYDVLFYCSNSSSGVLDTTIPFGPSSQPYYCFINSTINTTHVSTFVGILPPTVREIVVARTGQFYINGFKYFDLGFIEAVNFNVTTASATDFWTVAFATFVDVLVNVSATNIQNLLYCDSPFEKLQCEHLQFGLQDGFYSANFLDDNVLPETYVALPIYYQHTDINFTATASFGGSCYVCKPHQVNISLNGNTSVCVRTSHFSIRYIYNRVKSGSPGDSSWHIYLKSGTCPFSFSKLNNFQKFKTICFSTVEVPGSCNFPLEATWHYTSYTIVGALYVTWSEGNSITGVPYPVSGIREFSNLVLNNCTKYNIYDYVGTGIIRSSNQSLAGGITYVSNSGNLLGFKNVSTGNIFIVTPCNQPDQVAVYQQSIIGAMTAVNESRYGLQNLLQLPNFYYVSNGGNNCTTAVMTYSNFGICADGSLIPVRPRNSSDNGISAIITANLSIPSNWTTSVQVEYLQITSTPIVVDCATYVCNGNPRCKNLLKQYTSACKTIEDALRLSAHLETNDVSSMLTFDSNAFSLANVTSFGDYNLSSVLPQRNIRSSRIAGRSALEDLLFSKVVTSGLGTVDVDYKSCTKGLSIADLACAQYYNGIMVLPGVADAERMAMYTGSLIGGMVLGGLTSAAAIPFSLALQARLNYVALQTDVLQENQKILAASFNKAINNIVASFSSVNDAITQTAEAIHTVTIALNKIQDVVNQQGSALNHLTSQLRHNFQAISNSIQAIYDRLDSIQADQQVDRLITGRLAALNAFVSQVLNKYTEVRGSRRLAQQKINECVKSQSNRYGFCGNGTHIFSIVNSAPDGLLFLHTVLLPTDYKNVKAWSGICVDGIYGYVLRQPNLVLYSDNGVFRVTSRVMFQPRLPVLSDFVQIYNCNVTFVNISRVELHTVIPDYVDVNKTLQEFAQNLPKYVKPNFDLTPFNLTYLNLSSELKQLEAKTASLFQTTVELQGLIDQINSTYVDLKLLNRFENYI
The test can be described thus: ELISA on coated S-trimeric antigen, anti-human IgG-HRP [Human IgG3, NT-193]. On the technique in general: ELISA stands for enzyme-linked immunosorbent assay.

In test [2] the target is T2, HCoV-HKU1 trimeric S protein (amino acids 13-1293) with T4 foldon, histidine tag and strep-tag (HCoV-HKU1, UniProt Q5MQD0 13-1297).
T2 sequence: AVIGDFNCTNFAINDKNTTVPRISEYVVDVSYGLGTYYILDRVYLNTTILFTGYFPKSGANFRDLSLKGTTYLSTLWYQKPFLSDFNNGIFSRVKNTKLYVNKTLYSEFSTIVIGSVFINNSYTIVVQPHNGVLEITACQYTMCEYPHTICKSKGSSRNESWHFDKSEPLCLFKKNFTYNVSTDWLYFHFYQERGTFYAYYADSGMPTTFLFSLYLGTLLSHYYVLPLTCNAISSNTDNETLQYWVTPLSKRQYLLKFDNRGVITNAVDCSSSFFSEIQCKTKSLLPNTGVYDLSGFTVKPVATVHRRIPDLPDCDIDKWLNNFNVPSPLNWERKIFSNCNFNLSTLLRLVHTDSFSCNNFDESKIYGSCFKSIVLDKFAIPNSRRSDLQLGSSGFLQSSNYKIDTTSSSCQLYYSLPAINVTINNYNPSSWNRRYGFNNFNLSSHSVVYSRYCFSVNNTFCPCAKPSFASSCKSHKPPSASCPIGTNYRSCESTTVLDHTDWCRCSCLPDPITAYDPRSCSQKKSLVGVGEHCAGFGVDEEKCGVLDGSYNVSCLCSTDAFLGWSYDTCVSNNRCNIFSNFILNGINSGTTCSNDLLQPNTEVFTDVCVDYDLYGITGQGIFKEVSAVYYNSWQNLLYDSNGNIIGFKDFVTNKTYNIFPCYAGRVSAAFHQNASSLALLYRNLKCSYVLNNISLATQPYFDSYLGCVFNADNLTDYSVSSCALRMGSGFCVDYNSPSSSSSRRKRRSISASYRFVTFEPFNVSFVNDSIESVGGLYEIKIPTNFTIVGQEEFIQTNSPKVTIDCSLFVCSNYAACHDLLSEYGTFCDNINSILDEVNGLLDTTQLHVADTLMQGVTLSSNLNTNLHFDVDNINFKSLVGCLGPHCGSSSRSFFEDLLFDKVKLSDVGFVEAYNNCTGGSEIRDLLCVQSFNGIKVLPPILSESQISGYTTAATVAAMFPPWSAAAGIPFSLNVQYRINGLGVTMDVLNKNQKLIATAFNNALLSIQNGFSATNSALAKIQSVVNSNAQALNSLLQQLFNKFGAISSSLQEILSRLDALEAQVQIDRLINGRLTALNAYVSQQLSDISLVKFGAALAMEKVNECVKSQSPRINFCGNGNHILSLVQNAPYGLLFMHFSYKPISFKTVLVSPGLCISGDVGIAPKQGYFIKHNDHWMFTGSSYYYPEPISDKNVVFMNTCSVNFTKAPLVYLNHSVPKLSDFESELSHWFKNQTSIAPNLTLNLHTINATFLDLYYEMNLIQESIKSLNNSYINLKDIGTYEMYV
The test is described as above.

Results on 1 molecule are retold here after patent US20240287161A1 (NATIONAL UNIVERSITY CORPORATION TOTTORI UNIVERSITY, published 2024).

B1: NT-193, human IgG3 subclass (antibody, V domains shown)
VH: EVQLQQWGAGLLKPSETLSLTCAVYGGSFSGYYWSWIRQPPGKGLEWIGEINHSGSTNYNPSLKSRVTISVDTSKNQFSLKLSSVTAADTAVYYCARGWDLDYYYGMDVWGQGTTVTVSS
VL: DIRMTQSPSAMSASVGDRVTVTCRASQGIGNYLAWFQLKPGKVPKRLIYAASSLQSGVPARFSGGGSGTEFTLTISSLQPEDFATYYCLQHGFLPWTFGQGTKLEIK
Regarding B1, the binding result in test [1] and in test [2] was “no binding (tested: 1000 ng/ml)” in each case.
